Article PMC3547798, “Binding of Nucleoid-Associated Protein Fis to DNA Is Regulated by DNA Breathing Dynamics”

Columns and labels:
Fis [1] = target: T1, Fis (Escherichia coli DH5alpha, UniProt P0A6R3 1-98); assay: EMSA; complex detectable at 0.25-0.50 uM Fis; salmon sperm DNA; 20 mM HEPES (pH not stated), 150 mM NaCl, 500 ug/mL BSA, 1 mM DTT, 0.1 mM EDTA, 0.5-1 ug/ul salmon sperm DNA, room temperature 30 min; DNA 100 nM or 500 nM-1 uM (Methods); 6% gel, 0.5x TBE; conditions: protein: recombinant; tags: N-terminal GST (pGEX-KG); label: 5'-biotin on forward strand; blunt
Fis [2] = target: T1, Fis; assay: EMSA; significant complex at 0.25 uM Fis, stronger than FIS2; salmon sperm DNA; 20 mM HEPES (pH not stated), 150 mM NaCl, 500 ug/mL BSA, 1 mM DTT, 0.1 mM EDTA, 0.5-1 ug/ul salmon sperm DNA, room temperature 30 min; DNA 100 nM or 500 nM-1 uM (Methods); 6% gel, 0.5x TBE; conditions: protein: recombinant; tags: N-terminal GST (pGEX-KG); label: 5'-biotin on forward strand; blunt

T1 sequence (P0A6R3 whole entry): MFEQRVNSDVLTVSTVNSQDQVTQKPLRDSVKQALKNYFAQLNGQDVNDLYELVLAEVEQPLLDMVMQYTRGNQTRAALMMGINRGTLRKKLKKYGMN

Binder | binding result (Fis [1]) | binding result (Fis [2])
FIS1 (dsDNA) DNA 1: AAATTTGTTTGAATTTTGAGCAAATTT DNA 2: AAATTTGCTCAAAATTCAAACAAATTT | binds | 
FIS2m2 (dsDNA, O6-methylguanine at nt 12 and 15 of strand 1 (positions -2, +1)) DNA 1: AAATTTGTTTGGGCGCTGAGCAAATTT DNA 2: AAATTTGCTCAGCGCCCAAACAAATTT |  | binds
